According to publication PMC9239266 (mBio, 2022):

B1: caspase-7 p30 (C186A), ΔN23 (enzyme, human, UniProt P55210 24-303, looked up)
chain: AKPDRSSFVPSLFSKKKKNVTMRSIKTTRDRVPTYQYNMNFEKLGKCIIINNKNFDKVTGMGVRNGTDKDAEALFKCFRSLGFDVIVYNDCSCAKMQDLLKKASEEDHTNAACFACILLSHGEENVIYGKDGVTPIKDLTAHFRGDRCKTLLEKPKLFFIQAARGTELDDGIQADSGPINDTDANPRYKIPVEADFLFAYSTVPGYYSWRSPGRGSWFVQALCSILEEHGKDLEIMQILTRVNDRVARHFESQSDDPHFHEKKQIPCVVSMLTKELYFSQ
notes: also called CASP7 p30^C186A; caspase-7 p30 (C/A); source: E. coli BL21(DE3), purified (Ni-Sepharose)
B2: CopC ΔN50 (recombinant) (domain or fragment)
chain: AAGKIGAFLRKAVAAQSYGLMFANGKLFEATGDALEKRGQYGFSALQRLDGLSRRNLAAVEARLGALDSAERGLKERIMTGAWHFRHQSNAALDDGKTAAIASNHLLARESRSSGGNTFAGDKALLSNHDFVFFGVEFSGRGKQDKPLNHKHSTMDFGANAYVVPDTLPACRHGYLTLTDHFFNRVPGGREAEHQDFVGSFPQMGAETGRWIHEGKYRQNAPIFNYRDMKAAVALHLIEFLRDSKDAAFKAYVFDQAMQSGQALDRVLNSVFQAEFHIPRLMATTDYAKHPLRPMLLKEAVDSVNLPALSGLVSSKGDAVTAMWHAIDKGKDAVAAHLLGNWRFEAGDFASAPPGFYHELNYALSEHGASVYILDQFLSRGWAAVNAPFEHVNSGETMLDNAVKYGNREMAAALIKHGADRNLLSEWNGGKLDALLA
notes: also called CopC Δ50; source: E. coli BL21(DE3), purified (glutathione-Sepharose, GST removed by PreScission protease)

How the values were obtained:
CopC ΔN50 (recombinant) = target: B2; assay: SEC; conditions: both partners purified
recombinant CaM = target: T1, recombinant CaM (human, UniProt P0DP23 1-149); assay: SEC; conditions: both partners purified
T1 construct: also called calmodulin; Ca^2+-free CaM

| Binder | binding result (CopC ΔN50 (recombinant)) | binding result (recombinant CaM) |
| --- | --- | --- |
| B1 | binds | – |
| B2 | – | binds |
